Data set [1] deals with OGG1(K249Q) (human, UniProt O15527 1-345, K249Q). The data set can be described thus: cryo-EM; protein:DNA 1.5:1; 8-oxoG flipped out, DNA bent 65 degrees; 3.6 A; EMSA: 40 mM HEPES pH 7.4, 50 mM NaCl, 5 mM bME, 5% glycerol, 30 min on ice, 4-20% native gel; cryo-EM OGG1-DNA assembly: 20 mM HEPES pH 7.4, 100 mM NaCl, 5 mM bME, on ice. Conditions: protein: recombinant; tags: N-terminal 6His; blunt.

The target of data set [2] is full-length OGG1 (EMSA) (human, UniProt O15527 1-345). The data set can be described thus: EMSA; 2.5 uM DNA; all DNA shifted at 5 uM protein or above; two super-shift bands; EMSA: 40 mM HEPES pH 7.4, 50 mM NaCl, 5 mM bME, 5% glycerol, 30 min on ice, 4-20% native gel; cryo-EM OGG1-DNA assembly: 20 mM HEPES pH 7.4, 100 mM NaCl, 5 mM bME, on ice. Conditions: protein: recombinant; blunt.
Sequence of full-length OGG1 (EMSA) (O15527 whole entry): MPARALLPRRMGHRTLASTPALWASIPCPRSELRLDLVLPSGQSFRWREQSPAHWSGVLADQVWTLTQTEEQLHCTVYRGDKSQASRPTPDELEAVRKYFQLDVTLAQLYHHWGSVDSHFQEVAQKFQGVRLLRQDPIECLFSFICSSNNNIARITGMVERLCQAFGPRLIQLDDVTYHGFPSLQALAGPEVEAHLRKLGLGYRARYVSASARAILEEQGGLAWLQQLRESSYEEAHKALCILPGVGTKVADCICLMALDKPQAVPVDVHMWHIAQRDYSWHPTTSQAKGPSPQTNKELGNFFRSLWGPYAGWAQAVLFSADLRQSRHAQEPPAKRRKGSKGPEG

From publication PMC11438860, “Human 8-oxoguanine glycosylase OGG1 binds nucleosome at the dsDNA ends and the super-helical locations” come the findings set out here.

Sequence of OGG1(K249Q) (O15527 whole entry K249Q): as the sequence (O15527 whole entry) above, with K249Q counted along it

B1: 35-bp 8-oxoG DNA (dsDNA)
DNA 1: ATGCCTCGCAGAATCCCGCTGCCGAGGCCGCTCAA
DNA 2: TTGAGCGGCCTCGGCAGCGGGATTCTGCGAGGCAT
modifications: 8-oxo-dG at position 18 of strand 1 (text numbers it 17), within unmethylated Cp-8-oxoG
Turning to B1, the binding result in data set [1] and in data set [2] was “binds” throughout.
